# Results reported in paper PMC5916898, “Global profiling of protein–DNA and protein–nucleosome binding affinities using quantitative mass spectrometry”.
# T1: ZNF148 (Homo sapiens, UniProt Q9UQR1)
# T1 sequence: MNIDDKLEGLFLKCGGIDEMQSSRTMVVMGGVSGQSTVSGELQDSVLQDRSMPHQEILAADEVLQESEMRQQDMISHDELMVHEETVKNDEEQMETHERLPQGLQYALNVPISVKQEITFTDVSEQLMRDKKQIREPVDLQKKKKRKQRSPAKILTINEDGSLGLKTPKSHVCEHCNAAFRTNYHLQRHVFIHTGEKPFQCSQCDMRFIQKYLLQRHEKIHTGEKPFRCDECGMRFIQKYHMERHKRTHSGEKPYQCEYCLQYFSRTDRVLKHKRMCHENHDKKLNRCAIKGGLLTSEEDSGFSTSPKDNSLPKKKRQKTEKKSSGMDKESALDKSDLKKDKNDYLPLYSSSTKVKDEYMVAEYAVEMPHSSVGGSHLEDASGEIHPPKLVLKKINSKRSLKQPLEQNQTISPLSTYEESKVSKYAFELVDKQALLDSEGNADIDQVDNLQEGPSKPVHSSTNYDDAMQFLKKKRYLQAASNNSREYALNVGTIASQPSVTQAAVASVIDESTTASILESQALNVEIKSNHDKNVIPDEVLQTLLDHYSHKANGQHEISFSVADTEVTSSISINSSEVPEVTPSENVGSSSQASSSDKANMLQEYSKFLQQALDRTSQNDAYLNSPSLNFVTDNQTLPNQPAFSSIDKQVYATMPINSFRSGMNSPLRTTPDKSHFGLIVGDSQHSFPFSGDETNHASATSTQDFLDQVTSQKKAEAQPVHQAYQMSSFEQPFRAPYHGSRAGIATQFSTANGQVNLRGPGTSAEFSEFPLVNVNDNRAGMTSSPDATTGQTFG
# T2: VEZF1 (Homo sapiens, UniProt Q14119)
# T2 sequence: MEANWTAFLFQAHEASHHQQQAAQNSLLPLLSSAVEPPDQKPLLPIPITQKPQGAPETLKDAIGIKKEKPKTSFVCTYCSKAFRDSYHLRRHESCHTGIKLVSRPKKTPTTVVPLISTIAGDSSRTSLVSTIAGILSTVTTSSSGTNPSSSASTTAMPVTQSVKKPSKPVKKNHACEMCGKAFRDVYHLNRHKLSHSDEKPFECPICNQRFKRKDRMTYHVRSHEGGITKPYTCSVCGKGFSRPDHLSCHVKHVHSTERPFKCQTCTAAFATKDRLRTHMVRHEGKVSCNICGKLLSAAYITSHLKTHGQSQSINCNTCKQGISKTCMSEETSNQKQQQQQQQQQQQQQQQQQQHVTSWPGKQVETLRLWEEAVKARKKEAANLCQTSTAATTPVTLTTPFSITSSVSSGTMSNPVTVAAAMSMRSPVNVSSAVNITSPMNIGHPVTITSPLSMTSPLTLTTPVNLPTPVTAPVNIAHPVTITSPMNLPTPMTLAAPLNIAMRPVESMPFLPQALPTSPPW
# What was measured:
# ZNF148 = target: T1, ZNF148; experiment: competition; 150 mM NaCl, 50 mM Tris pH 8, 0.25% NP-40, 1 mM TCEP; 4 C, 2 h; 100 ug HeLa nuclear lysate; free competitor against 200 nM immobilised SP/KLF wild-type; settings: protein: extract
# VEZF1 = target: T2, VEZF1; experiment: as above; settings: protein: extract
# ZBTB7A = ZBTB7A (Homo sapiens, UniProt O95365); experiment: as above; settings: protein: extract
# SP1 = SP1 (Homo sapiens, UniProt P08047); experiment: as above; settings: protein: extract
# KLF3 = KLF3 (Homo sapiens, UniProt P57682); experiment: as above; settings: protein: extract
# SP4 [1] = target: T3, SP4 (Homo sapiens, UniProt Q02446); experiment: as above; settings: protein: extract
# KLF4 = KLF4 (Homo sapiens, UniProt O43474); experiment: as above; settings: protein: extract
# SP4 [2] = target: T3, SP4; experiment: pulldown; 150 mM NaCl, 50 mM Tris pH 8, 0.25% NP-40, 1 mM TCEP; 4 C, 2 h; 100 ug HeLa nuclear lysate; settings: protein: extract; label: 5' biotin (strand 1)
# T3 sequence (Q02446 whole entry): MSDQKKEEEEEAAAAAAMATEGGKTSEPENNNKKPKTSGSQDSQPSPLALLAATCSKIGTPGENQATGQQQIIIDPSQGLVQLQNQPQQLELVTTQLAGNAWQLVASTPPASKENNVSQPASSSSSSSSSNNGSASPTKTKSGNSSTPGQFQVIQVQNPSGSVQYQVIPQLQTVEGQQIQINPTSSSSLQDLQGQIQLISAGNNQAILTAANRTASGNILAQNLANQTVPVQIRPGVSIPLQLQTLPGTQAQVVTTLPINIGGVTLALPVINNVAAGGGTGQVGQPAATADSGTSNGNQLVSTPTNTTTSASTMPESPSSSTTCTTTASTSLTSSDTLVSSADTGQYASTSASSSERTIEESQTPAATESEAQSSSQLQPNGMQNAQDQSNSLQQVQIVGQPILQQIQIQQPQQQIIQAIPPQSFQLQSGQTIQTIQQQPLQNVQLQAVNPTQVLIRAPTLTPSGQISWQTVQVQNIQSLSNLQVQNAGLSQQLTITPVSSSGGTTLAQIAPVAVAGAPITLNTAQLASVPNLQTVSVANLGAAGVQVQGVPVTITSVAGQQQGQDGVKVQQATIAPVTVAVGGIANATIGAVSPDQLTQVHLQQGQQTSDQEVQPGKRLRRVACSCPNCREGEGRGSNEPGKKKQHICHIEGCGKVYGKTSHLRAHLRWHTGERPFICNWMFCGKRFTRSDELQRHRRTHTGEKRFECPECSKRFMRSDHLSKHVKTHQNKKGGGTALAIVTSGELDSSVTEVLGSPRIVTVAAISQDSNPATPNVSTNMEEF
# Sequence of KLF4 (O43474 whole entry): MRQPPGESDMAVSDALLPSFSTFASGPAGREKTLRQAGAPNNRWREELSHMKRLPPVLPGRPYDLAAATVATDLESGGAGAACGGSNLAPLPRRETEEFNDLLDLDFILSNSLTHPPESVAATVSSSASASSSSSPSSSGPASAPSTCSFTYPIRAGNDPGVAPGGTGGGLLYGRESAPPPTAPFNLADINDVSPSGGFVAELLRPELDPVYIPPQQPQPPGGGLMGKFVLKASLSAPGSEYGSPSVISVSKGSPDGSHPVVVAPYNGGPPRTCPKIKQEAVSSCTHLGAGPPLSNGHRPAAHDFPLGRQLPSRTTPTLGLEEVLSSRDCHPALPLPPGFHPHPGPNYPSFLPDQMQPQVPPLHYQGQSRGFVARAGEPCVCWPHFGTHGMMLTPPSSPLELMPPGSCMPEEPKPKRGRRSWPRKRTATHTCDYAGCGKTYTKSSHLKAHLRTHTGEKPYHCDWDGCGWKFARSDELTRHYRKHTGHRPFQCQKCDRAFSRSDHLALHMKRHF
# Sequence of KLF3 (P57682 whole entry): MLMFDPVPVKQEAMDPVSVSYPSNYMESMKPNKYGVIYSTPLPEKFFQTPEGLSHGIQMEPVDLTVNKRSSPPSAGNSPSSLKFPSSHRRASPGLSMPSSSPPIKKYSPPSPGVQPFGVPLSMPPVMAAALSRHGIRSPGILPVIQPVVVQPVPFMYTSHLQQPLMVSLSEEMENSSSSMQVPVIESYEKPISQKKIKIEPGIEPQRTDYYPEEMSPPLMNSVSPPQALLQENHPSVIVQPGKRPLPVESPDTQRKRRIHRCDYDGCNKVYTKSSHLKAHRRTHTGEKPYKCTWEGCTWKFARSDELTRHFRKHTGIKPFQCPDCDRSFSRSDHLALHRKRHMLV
# Sequence of ZBTB7A (O95365 whole entry): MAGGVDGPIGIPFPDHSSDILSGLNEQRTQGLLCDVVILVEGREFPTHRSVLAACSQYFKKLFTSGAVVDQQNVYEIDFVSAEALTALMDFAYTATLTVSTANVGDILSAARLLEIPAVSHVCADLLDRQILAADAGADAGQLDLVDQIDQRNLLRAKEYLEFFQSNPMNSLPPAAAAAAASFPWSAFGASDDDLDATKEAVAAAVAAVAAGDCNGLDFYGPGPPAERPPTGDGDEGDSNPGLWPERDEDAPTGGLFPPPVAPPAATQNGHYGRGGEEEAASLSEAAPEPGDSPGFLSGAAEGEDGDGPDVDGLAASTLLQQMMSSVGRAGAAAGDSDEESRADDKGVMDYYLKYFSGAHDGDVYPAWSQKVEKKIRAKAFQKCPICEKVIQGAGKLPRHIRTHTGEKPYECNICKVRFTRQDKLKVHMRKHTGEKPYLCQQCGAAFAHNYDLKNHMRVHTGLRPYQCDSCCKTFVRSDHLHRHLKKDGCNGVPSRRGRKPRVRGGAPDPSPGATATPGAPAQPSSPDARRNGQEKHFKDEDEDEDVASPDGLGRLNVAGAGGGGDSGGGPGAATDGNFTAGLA
# Sequence of SP1 (P08047 whole entry): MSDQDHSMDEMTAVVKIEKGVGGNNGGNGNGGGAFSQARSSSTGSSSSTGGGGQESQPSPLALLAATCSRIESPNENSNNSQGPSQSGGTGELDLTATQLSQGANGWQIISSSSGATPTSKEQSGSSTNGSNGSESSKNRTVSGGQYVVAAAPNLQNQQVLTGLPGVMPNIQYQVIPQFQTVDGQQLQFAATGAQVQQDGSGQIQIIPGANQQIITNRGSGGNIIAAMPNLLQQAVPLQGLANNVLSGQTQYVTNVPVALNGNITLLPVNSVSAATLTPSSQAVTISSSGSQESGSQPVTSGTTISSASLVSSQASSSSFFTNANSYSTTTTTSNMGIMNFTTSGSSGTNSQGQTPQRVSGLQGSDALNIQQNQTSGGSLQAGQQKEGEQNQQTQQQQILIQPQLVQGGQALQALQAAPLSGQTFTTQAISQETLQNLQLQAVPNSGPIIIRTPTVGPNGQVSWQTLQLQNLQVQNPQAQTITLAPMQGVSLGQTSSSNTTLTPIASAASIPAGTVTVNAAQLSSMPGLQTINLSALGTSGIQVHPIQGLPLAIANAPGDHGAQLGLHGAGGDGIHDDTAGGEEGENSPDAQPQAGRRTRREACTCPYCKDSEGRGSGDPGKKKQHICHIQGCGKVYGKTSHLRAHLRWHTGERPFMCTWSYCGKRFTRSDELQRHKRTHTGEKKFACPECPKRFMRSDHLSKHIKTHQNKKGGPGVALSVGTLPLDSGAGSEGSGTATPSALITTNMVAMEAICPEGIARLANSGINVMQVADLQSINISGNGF
Binder,IC50 (ZNF148),IC50 (VEZF1),IC50 (ZBTB7A),IC50 (SP1),IC50 (KLF3),IC50 (SP4 [1]),IC50 (KLF4),apparent K (half saturation) (SP4 [2])
SP/KLF wild-type (dsDNA) DNA 1: GAGAGCCCCGCCCCCTGGCT DNA 2: AGCCAGGGGGCGGGGCTCTC,164 nM,270 nM,263 nM,192 nM,112 nM,87.5 nM,229 nM,–
CTCF (dsDNA) DNA 1: TCAGAGTGGCGGCCAGCAGGGGGCGCCCTTGCCAGA DNA 2: TCTGGCAAGGGCGCCCCCTGCTGGCCGCCACTCTGA,–,–,–,–,–,–,–,41.3 nM
